For the series, the target named is NP:WT-C-His (nucleoprotein) (Influenza A virus A/Puerto Rico/8/1934 …, UniProt P03466 1-498). Nature of the series: BLI.

This is an account of results in doi:10.1101/2022.01.09.475567.

Chain of NP:WT-C-His (nucleoprotein) (P03466 whole entry): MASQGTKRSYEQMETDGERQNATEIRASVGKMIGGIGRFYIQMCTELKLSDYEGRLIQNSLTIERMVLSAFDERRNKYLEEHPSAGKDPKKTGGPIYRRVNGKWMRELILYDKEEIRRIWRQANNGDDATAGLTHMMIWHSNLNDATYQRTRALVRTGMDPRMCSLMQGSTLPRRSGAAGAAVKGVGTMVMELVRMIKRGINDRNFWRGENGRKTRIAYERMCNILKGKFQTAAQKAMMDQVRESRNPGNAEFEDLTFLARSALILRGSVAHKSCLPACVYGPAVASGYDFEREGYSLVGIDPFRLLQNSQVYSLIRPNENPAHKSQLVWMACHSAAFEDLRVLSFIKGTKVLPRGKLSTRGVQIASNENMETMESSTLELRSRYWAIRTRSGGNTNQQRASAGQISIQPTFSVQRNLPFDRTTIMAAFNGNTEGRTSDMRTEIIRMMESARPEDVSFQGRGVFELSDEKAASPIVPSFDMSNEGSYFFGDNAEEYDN

By Kd is commonly meant the equilibrium constant for the complex coming apart. UUUGUUACACACACACACGCUGUG (ssRNA) [24nt ssRNA] gave a Kd of 2.48 ± 0.091 nM.
